B1: HDV Ribozyme (parent)
chain: GGCCGGCAUGGUCCCAGCCUCCUCGCUGGCGCCGGCUGGGCAACAUUCCGAGGGGACCGUCCCCUCGGUAAUGGCGAAUGGGACCCA

The variants in this data set derive from B1. The data set is described as follows: self-cleavage, relative activity (ratio to wild type); higher = more cleavage; co-transcriptional.
As for U12G C41A, the self-cleavage was determined as 1.06. The value for C14A G55A was 0.814; that for C13A A56G was 0.101. The value for C13A U69G was 0.314. The value for C14U C21G was 0.125; that for C14A C19A was 0.0639. In the case of C14A A87C, the self-cleavage was found to be 0.643. In the case of C13U C62G, the self-cleavage amounted to 0.554. The value for C13A G25U was 0.0791. Turning to C13A C15G, the self-cleavage was 0.142. The value for C14A G40C was 0.185; that for C14A G40U was 0.261; that for C13G A87U was 0.0911.

Turning to U12G G73A, the self-cleavage amounted to 0.323. For the variant C14G G80U, the self-cleavage was found to be 0.261. The value for C13G C36G was 0.158.

Consider C13U A45U, for which the self-cleavage was 0.198. The value for C13G G68U was 0.0978; that for C13G G68C was 0. The value for C13A A78U was 0.0449. The value for C14A G67C was 0.554; that for C13A G17A was 0.0639; that for C13A G17C was 0.

On to C13U G17C, for which the self-cleavage stood at 0.217. The value for C14G U65G was 0.665; that for C14A G82C was 0.172. The value for C13G C30U was 0.26. The value for C13G C30A was 0.0978; that for C13G C30G was 0.0426. As for C13G U69A, the self-cleavage stood at 0.0437. The value for C13U A71C was 0.639; that for C13U A70G was 0.475. The value for C14A C30U was 0.143; that for C13U A56C was 0.677; that for C13U C86U was 1.1.

With C14G C30G, the self-cleavage came to 0.0692. The value for C13G C19A was 0.0437. As for C13G C19U, the self-cleavage came out at 0.0396. The value for C14U C19A was 0.0545; that for C14A G17C was 0.123. The value for C13A G35C was 0.0339. With C14A A70C, the self-cleavage is 0.467. The value for C13U G28U was 0.0615. On to C13A G74C, for which the self-cleavage is 0.0346. The value for C13A G74A was 0.101; that for C13A C57U was 0.175. On to C14U A45G, for which the self-cleavage worked out at 0.988.

On to U12G U27C, for which the self-cleavage is 0.776. As for U12G U27G, the self-cleavage was found to be 0.639. With C14U C18U, the self-cleavage came to 0.591. The value for C14U C15U was 0.665; that for C13G C21A was 0; that for C14G G53U was 0.802. The value for U12G G17C was 0.192; that for C14A C26U was 1.07; that for C13U C58U was 0.403. On to C13G C24G, for which the self-cleavage amounted to 0. The value for C13G C85U was 0; that for C13G C85A was 0; that for C14G A43G was 0.0978. The value for C13A U27G was 0.594; that for C13A U27C was 0.594. As to U12G G74U, the self-cleavage was determined as 0.453.

As to U12G G74A, the self-cleavage amounted to 0.18. On to C14G G67A, for which the self-cleavage is 0.453. The value for C13U C64U was 0.554. The value for C13A A45U was 0.128; that for C13A A45C was 0.0707. The value for C14A C66U was 1.03; that for C13G U72G was 0.0923; that for C13U G74A was 0.131. In the case of C13U G74U, the self-cleavage was 0.0852. The value for U12G C84G was 0.256; that for C13U G29C was 0.0332. The value for C13U G29A was 0.104; that for U12G G35A was 0.19; that for C14G C58A was 0.639. On to C13A G29U, for which the self-cleavage is 0.0782. The value for C13U C36G was 0.0723; that for C13U C36A was 0.132. As for U12G C36G, the self-cleavage came out at 0. The value for C14U A42G was 0.959; that for C13G G28A was 0. Regarding C13G G28C, the self-cleavage amounted to 0.0504.

As to C13A G39U, the self-cleavage was found to be 0.0615. C14G A42C: the self-cleavage is 0.0923. The value for C14G U37A was 0.0489; that for C14G U37C was 0.646. The value for U12G G52A was 1.05; that for U12G C75G was 0; that for C13U U23G was 0.287.

Take C14G C22G: the self-cleavage is 0.

As for C14G C22A, the self-cleavage was 0. The value for C13U G81A was 0.189; that for C13G C58A was 0; that for C13G U79C was 0.

On to U12G G55A, for which the self-cleavage was 0.703. The value for C13G C48U was 0.0739. The value for C14A C22G was 0.0573; that for C14A A78U was 0.0791; that for C14A A78G was 0.0519. For the variant C14G C18A, the self-cleavage stood at 0.17.

On to C14G C18U, for which the self-cleavage stood at 0.115.

In the case of C14A U46G, the self-cleavage was determined as 0.525. The value for U12G G40U was 0.655; that for C13A C21G was 0.0332; that for C13G A78C was 0.0811. With C13U A51U, the self-cleavage is 0.802.

Take C14G A56G: the self-cleavage stood at 0.646. The value for C14G A56U was 0.969; that for C13A A77U was 0.0739. The value for C14G U20G was 0.151; that for C14G G50C was 0.302; that for C13G C41U was 0.

With C13U G76A, the self-cleavage worked out at 0.743. The value for C13U A43U was 0.151.

C13U A43C: the self-cleavage was 0.0791. The value for C13U A42U was 0.125. The value for C13U A42C was 0.0831; that for C13U G54C was 0.623. On to C13U G54U, for which the self-cleavage stood at 0.578.

Take C13U C21U: the self-cleavage came to 0.0563. The value for C14A G54A was 0.751; that for C13A U65C was 0.203; that for C13A C48U was 0.284. The value for C14A G73C was 0.104. The value for C14G G73A was 0.222; that for C14G G73C was 0.0504. As for U12G C48G, the self-cleavage was found to be 0.831.

In the case of C13U G53C, the self-cleavage came out at 0.831.

Take C13A U46G: the self-cleavage stood at 0.0594. The value for C13G U37C was 0.237; that for C14U A51C was 1.19; that for C14A G31C was 0.0678. The value for C14G C26G was 0.692.

Take C14G C26A: the self-cleavage amounted to 0.639. The value for C14A U72C was 0.378; that for C13U C32G was 0.101; that for C13U C32U was 0.584.

Consider C14G G81A, for which the self-cleavage was 0.957. The value for C14G G81C was 0.974; that for C13A G53U was 0.138. Consider C13A G53A, for which the self-cleavage was determined as 0.229. The value for U12G G53C was 0.831; that for C13A C32U was 0.375; that for C13A C32A was 0.0326. The value for C13G C15G was 0.122.

On to C14A U27A, for which the self-cleavage was 0.739. The value for C14G C64G was 0.485; that for C14U C22G was 0.155; that for C13U C49A was 0.727. The value for C14G C62G was 0.0831; that for C14A A77U was 0.237; that for U12G G68C was 0.914. For the variant U12G G68A, the self-cleavage turned out to be 0.529. The value for C14G U79C was 0.173; that for C13U A77C was 0.293.

Consider C13G A43U, for which the self-cleavage stood at 0.0923.

Take C13G A43C: the self-cleavage came out at 0.262. The value for C14G U27C was 0.727; that for C14G U27G was 1.14.

With C13U C33A, the self-cleavage is 0.0923.

For the variant C13G G31U, the self-cleavage amounted to 0.0405.

Turning to C14A A16U, the self-cleavage was found to be 0.923. The value for C14G A51G was 0.475; that for C13G C32G was 0; that for U12G U46C was 1.02.

For the origin of these results see the RNAGym collection of RNA variant scans (doi:10.7554/elife.80360).
